Reference: the FLAb antibody collection (doi:10.7554/elife.23156)

B1: scFv; the commonest letter at each place (parent)
chain 1: EVKLDETGGGLVQPGRPMKLSCVASGFTFSDYWMNWVRQSPEKGLEWVAQIRNKPYNYETYYSDSVKGRFTISRDDSKSSVYLQMNNLRVEDMGIYYCTGSYYGMDYWGQGTSVTVS
chain 2: DVVMTQTPLSLPVSLGDQASISCRSSQSLVHSNGNTYLRWYLQKPGQSPKVLIYKVSNRFSGVPDRFSGSGSGTDFTLKISRVEAEDLGVYFCSQSTHVPWTFGGGTKLEIK

Columns and labels:
[1] = variants of: B1; test: Kd (Tite-Seq); details: with fluorescein; format: scFv 4-4-20, heavy + light
[2] = variants of: B1; test: yeast surface expression (ratio to wild type); higher = more expressed; details: format: scFv 4-4-20, heavy + light

Row | Kd [1] [µM] | Variant | yeast surface expression [2]
1 | 0.00166 | chain 1 S101A D106L | 0.302
2 | ≥ 10 | chain 1 S30T W33V | 0.899
3 | 0.0372 | chain 1 S30V D31M | 0.223
4 | ≥ 10 | chain 1 S101D M105T | 0.799
5 | ≥ 10 | chain 1 S30Y D31A N35A | 0.451
6 | 0.00158 | chain 1 S30Q D31H | 0.881
7 | 6.96 | chain 1 S30H M34C | 0.623
8 | ≥ 10 | chain 1 S30L N35T | 0.699
9 | ≥ 10 | chain 1 S101E Y102Q W108C | 0.541
10 | 0.0729 | chain 1 S30M Y32H | 0.872
11 | 0.0457 | chain 1 S101G D106A | 0.675
12 | ≥ 10 | chain 1 S101C Y103V D106I | 0.168
13 | ≥ 10 | chain 1 S101F G109S | 0.424
14 | 0.004 | chain 1 S30H W36F | 0.728
15 | 2.34 | chain 1 S30H W36M | 0.564
16 | ≥ 10 | chain 1 S101G Y103C | 0.678
17 | ≥ 10 | chain 1 S30K W36E | 1.31
18 | 0.00215 | chain 1 S30W | 0.701
19 | 0.00122 | chain 1 S30K | 1.12
20 | 0.00101 | chain 1 S30P | 1.06
21 | 0.000743 | chain 1 S30V | 0.901

Row | Kd [1] [µM] | Variant | yeast surface expression [2]
22 | 0.00146 | chain 1 S30Y | 0.759
23 | 0.00215 | chain 1 S30I | 0.787
24 | 0.000938 | chain 1 S30Q | 1.12
25 | 0.00122 | chain 1 S30N | 0.889
26 | ≥ 10 | chain 1 S30Q W33S | 0.902
27 | ≥ 10 | chain 1 S30Q W33N | 0.979
28 | ≥ 10 | chain 1 S30R W36G | 0.171
29 | ≥ 10 | chain 1 S30V M34S | 0.569
30 | ≥ 10 | chain 1 S30V M34H | 0.497
31 | 0.00135 | chain 1 S30I V37C | 0.464
32 | ≥ 10 | chain 1 S101D Y103A | 1.07
33 | ≥ 10 | chain 1 S101D Y103K | 0.764
34 | ≥ 10 | chain 1 S30Y Y32S W33T | 0.934
35 | ≥ 10 | chain 1 S101G W108R | 0.436
36 | 0.0562 | chain 1 S30H V37F | 0.754
37 | 0.00293 | chain 1 S30N M34I | 0.954
38 | 9.5 | chain 1 S30H Y32C | 0.722
39 | ≥ 10 | chain 1 S101I | 0.521
40 | ≥ 10 | chain 1 S101E | 0.838
41 | ≥ 10 | chain 1 S101C | 0.832
42 | ≥ 10 | chain 1 S101H | 0.737

Row | Kd [1] [µM] | Variant | yeast surface expression [2]
43 | ≥ 10 | chain 1 S101G Y102L | 1.06
44 | ≥ 10 | chain 1 S30P D31S N35P | 0.757
45 | ≥ 10 | chain 1 S30N N35E | 0.697
46 | ≥ 10 | chain 1 S101H Y107R | 0.581
47 | 0.00175 | chain 1 S101A Y107S | 0.854
48 | ≥ 10 | chain 1 S101I G109I | 0.219
49 | ≥ 10 | chain 1 S101H M105V | 0.592
50 | ≥ 10 | chain 1 S30H W33A | 0.733
51 | ≥ 10 | chain 1 S30W D31V | 0.463
52 | ≥ 10 | chain 1 S30R D31N W36A | 0.32
53 | ≥ 10 | chain 1 S101H Y103N | 0.984
54 | ≥ 10 | chain 1 S101H Y103Q | 0.871
55 | ≥ 10 | chain 1 S101H Y103L | 0.78
56 | ≥ 10 | chain 1 S30Y N35C | 0.686
57 | ≥ 10 | chain 1 S30Y W33G | 0.602
58 | ≥ 10 | chain 1 S101D D106C W108N | 0.369
59 | ≥ 10 | chain 1 S30K Y32S M34V | 0.837
60 | 0.0162 | chain 1 S30K N35G | 1.03
61 | ≥ 10 | chain 1 S30W N35V | 0.273
62 | ≥ 10 | chain 1 S30Y Y32P | 0.691

More lines, now with the values behind:

Row | Variant | Kd [1] [µM] | yeast surface expression [2]
63 | chain 1 S30T W33F | 0.0534 | 0.909
64 | chain 1 S30V D31P | ≥ 10 | 0.754
65 | chain 1 S101E G104K M105C | ≥ 10 | 0.346
66 | chain 1 S30P M34F | 0.00184 | 1.2
67 | chain 1 S30H M34F | 0.0015 | 0.945
68 | chain 1 S30H Y32R V37Q | 0.0189 | 1.99
69 | chain 1 S30M Y32R | 4.84 | 0.465
70 | chain 1 S101G Y103R | ≥ 10 | 0.949
71 | chain 1 S101F W108S G109S | ≥ 10 | 0.242
72 | chain 1 S30T | 0.000743 | 1.07
73 | chain 1 S30M | 0.00175 | 0.855
74 | chain 1 S30R | 0.000964 | 0.995
75 | chain 1 S30L | 0.00638 | 0.801
76 | chain 1 S30I W33Y V37P | 7.33 | 0.0571
77 | chain 1 S30I W36P V37E | ≥ 10 | 0.93
78 | chain 1 S101C M105Y Y107D | ≥ 10 | 0.281
79 | chain 1 S101C M105Y Y107T | ≥ 10 | 0.488
80 | chain 1 S30K W33L | ≥ 10 | 0.749
81 | chain 1 S30Q V37E | ≥ 10 | 0.892
82 | chain 1 S30H Y32T | ≥ 10 | 0.891
83 | chain 1 S30Q Y32V | ≥ 10 | 0.923
84 | chain 1 S30R V37M | ≤ 0.000316 | 1.02
85 | chain 1 S101A | 0.000724 | 0.836
86 | chain 1 S101D | ≥ 10 | 0.888
87 | chain 1 S101F | ≥ 10 | 0.596
88 | chain 1 S101G | ≥ 10 | 0.901
89 | chain 1 S30R D31R | 0.00827 | 0.684

Row | Variant | Kd [1] [µM] | yeast surface expression [2]
90 | chain 1 S30T W36M | 0.02 | 0.705
91 | chain 1 S101C Y103L | ≥ 10 | 0.522
92 | chain 1 S30N N35T | ≥ 10 | 0.803
93 | chain 1 S30N N35W | ≥ 10 | 0.529
94 | chain 1 S101C G104N G109R | ≥ 10 | 0.263
95 | chain 1 S30N V37W | ≥ 10 | 0.654
96 | chain 1 S101D Y102P | ≥ 10 | 0.719
97 | chain 1 S101D Y102F | ≥ 10 | 0.93
98 | chain 1 S30H W33C | ≥ 10 | 0.61
99 | chain 1 S30W D31N | ≤ 0.000316 | 0.866
100 | chain 1 S101D G104D Y107K | ≥ 10 | 0.674
101 | chain 1 S30Y W33L | ≥ 10 | 0.755
102 | chain 1 S30Q N35K | ≥ 10 | 0.304
103 | chain 1 S30I D31H W33C | ≥ 10 | 0.449
104 | chain 1 S101H G109V | ≥ 10 | 0.231
105 | chain 1 S101A G104N | ≥ 10 | 0.72
106 | chain 1 S101I M105N | ≥ 10 | 0.482
107 | chain 1 S101I M105V | ≥ 10 | 0.468
108 | chain 1 S101G M105A | ≥ 10 | 0.988
109 | chain 1 S30K N35I | ≥ 10 | 0.879
110 | chain 1 S101H D106C | ≥ 10 | 0.467
111 | chain 1 S30M N35V V37A | ≥ 10 | 0.167
112 | chain 1 S30L Y32H | 2.23 | 0.8
113 | chain 1 S30W N35I | ≥ 10 | 0.743
114 | chain 1 S30T M34I | 0.00493 | 0.678
115 | chain 1 S30T M34E | 0.345 | 0.314
116 | chain 1 S30L D31L | ≥ 10 | 0.0981
